# Data as given in paper doi:10.1101/2023.09.06.556503 (bioRxiv, 2023).
# B1: EY-6A antibody (IgG1) (antibody, V domains shown)
# VH: EVQLVESGGGVVQPGRSLRLSCAASAFTFSSYDMHWVRQAPGKGLEWVAVISYDGSNKYYADSVKGRFTISRDNSKNTLYLQMNSLRAEDTAVYYCAKDGGKLWVYYFDYWGQGTLVTVSS
# VL: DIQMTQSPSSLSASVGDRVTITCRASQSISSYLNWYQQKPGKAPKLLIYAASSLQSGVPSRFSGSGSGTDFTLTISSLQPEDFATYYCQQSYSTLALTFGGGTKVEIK
# notes: copies: 2 + 2
# B2: REGN10987 antibody (IgG1) (antibody, V domains shown)
# VH: QVQLVESGGGVVQPGRSLRLSCAASGFTFSNYAMYWVRQAPGKGLEWVAVISYDGSNKYYADSVKGRFTISRDNSKNTLYLQMNSLRTEDTAVYYCASGSDYGDYLLVYWGQGTLVTVSS
# VL: QSALTQPASVSGSPGQSITISCTGTSSDVGGYNYVSWYQQHPGKAPKLMIYDVSKRPSGVSNRFSGSKSGNTASLTISGLQSEDEADYYCNSLTSISTWVFGGGTKLTVL
# B3: IgG1 FD-11A antibody (antibody, V domains shown)
# VH: EVQLVESGGGVVQPGRSLRLSCAASGFTFSSYGMHWVRQAPGKGLEWVAVIWYDGSNKYYADSVKGRFTISRDNSKNTLYLQMNSLRAEDTAVYYCAKGPDILTGYYNYYYYGMDVWGQGTMVTVSS
# VL: QSVLTQPPSVSGAPGQRVTISCTGSSSNIGAGYDVHWYQQLPGTAPKLLIYGNSNRPSGVPDRFSGSKSGTSASLAITGLQAEDEADYYCQSYDSSLSGFYVVFGGGTKLTVL
# notes: also called FD-11A IgG; source: ExpiCHO, transfected, purified (MabSelect SuRe); copies: 2 + 2
# B4: FD-5D antibody (IgG1) (antibody, V domains shown)
# VH: EVQLVESGGGLVQPGGSLRLSCAASGFTFSSYSMNWVRQAPGKGLEWVSYISSSSSTIYYADSVKGRFTISRDNAKNSLYLQMNSLRAEDTAVYYCASPGGITAAGTSVLFGYYGMDVWGQGTTVTVSS
# VL: not shown
# notes: source: ExpiCHO, transfected, purified (MabSelect SuRe); copies: 2 + 2
# B5: FI-3A antibody (IgG1) (antibody, V domains shown)
# VH: EVQLLESGGGLIQPGGSLRLSCAASGFTVSSNYMSWVRQAPGKGLEWVSVIYSGGSTYYADSVKGRFTISRDNSKNTLYLQMNSLRAEDTAVYYCARDHVRPGMNIWGQGTMVTVSS
# VL: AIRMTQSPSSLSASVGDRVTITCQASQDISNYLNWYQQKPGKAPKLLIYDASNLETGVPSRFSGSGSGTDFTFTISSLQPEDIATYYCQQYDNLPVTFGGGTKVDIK
# notes: as for B4
# Assays:
# [1] = biological target: Biotinylated SARS-CoV-2 (Wuhan) RBD, held on the SPR chip (SARS-CoV-2 (Wuhan), UniProt P0DTC2, biotin (EZ-Link Sulfo-NHS-LC-biotin); Lys15 within the N-terminal AviTag is named as the biotinylation site); assay: SPR; conditions: both partners purified
# [2] = biological target: SARS-CoV-2 (Wuhan) receptor-binding domain, soluble monovalent RBD (RBD-H) (SARS-CoV-2 (Wuhan), UniProt P0DTC2); assay: SPR; conditions: both partners purified
Binder,binding result [1],binding result [2],Kd [1]
B1,binds,binds,
B2,binds,,
B3,,,1230 nM
B4,binds,binds,
B5,binds,binds,
